Reference: publication PMC4713147

System: H-NS (Escherichia coli)
Experiment: EMSA
Conditions: apparent Kd; 200 pM DNA; EMSA: H-NS 0-500 nM, 200 pM 32P-labelled DNA, 4% polyacrylamide gel run at 4 C; buffer, salt and pH not stated (as in ref 99)

Row | Substance | Kd
1 | bglG DRE (bglB primer pair) | 10 nM
2 | GC rich region of pBR322 | 200 nM
